According to patent publication WO2021084104A1 (dated 2021):

Assays:
[1] = target: T1, full-length CD40 on cells (transfected CHO-S cells, Raji B-cell line, primary B cells) (human, UniProt P25942 21-277); test: flow cytometry on transfected and endogenously expressing cells (Fig. 6B)
T1 construct: whole, on cells; also called target expressing cells

[2] = target: T2, full-length 4-1BB on cells (transfected CHO-S cells, in vitro activated CD4 positive T-cells) (human, UniProt Q07011 24-255); test: as above
T2 construct: whole, on cells; also called target expressing cells
T2 sequence (Q07011 24-255): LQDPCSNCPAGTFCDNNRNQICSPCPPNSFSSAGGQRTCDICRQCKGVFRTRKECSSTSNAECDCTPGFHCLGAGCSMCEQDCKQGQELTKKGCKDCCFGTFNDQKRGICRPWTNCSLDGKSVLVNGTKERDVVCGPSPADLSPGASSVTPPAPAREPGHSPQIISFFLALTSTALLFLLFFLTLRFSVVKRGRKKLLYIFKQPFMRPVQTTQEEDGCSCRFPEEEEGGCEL

[3] = target: T1, full-length CD40 on cells (transfected …); test: flow cytometry on transfected and endogenously expressing cells (Fig. 6A)
[4] = target: T3, full-length OX40 on cells (transfected CHO-S cells, in vitro activated CD4 positive T-cells) (human, UniProt P43489 29-277); test: as above
T3 construct: whole, on cells; also called 0X40; target expressing cells
T3 sequence (looked up): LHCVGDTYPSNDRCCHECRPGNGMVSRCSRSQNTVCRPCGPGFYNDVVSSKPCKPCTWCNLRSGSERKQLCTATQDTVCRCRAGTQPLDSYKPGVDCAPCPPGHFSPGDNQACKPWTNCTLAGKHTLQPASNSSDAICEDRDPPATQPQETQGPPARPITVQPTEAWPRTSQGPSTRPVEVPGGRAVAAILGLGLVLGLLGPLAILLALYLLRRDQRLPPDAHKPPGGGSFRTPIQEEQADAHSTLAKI

[5] = target: T3, full-length OX40 on cells (transfected …); test: flow cytometry on transfected and endogenously expressing cells (Fig. 6C)
[6] = target: T2, full-length 4-1BB on cells (transfected …); test: as above
[7] = target: T1, full-length CD40 on cells (transfected …); test: flow cytometry on overexpressing or endogenously expressing cells (Fig. 7)
[8] = target: T3, full-length OX40 on cells (transfected …); test: as above

T1 sequence (P25942 21-277): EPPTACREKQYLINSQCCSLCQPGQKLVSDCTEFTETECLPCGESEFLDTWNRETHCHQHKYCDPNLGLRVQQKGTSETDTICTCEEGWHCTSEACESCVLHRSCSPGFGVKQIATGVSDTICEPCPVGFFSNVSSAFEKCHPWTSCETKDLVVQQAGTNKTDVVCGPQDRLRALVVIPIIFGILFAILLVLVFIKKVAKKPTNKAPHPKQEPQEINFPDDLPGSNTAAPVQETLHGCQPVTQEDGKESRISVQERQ

B1: tetra VH IgG #4 (VH-CH1=41BB #4, VH-CL=CD40 #3) (bispecific antibody, V domains shown, not shown: a dimerising Fc or GST)
V domain 1: EVQLLESGGGLVQPGGSLRLSCAASGFTFGDYAMSWFRQAPGKGLEWVAVLSYDGSNTDYADSVKGRFTISRDNSKNTLYLQMNSLRAEDTAVYYCAKGPLILAAGNYWGQGTLVTVSS
V domain 2: EVQLLESGGGLVQPGGSLRLSCAASGFTFSSYAMSWVRQAPGKGLEWVSRLNSDGITATYADSVKGRFTISRDNSKNTLYLQMNSLRAEDTAVYYCARGKIPAIDHWGQGTLVTVSS
notes: Human IgG1 format with a VH in place of the VL; no VL domain; also called tetra VH lgG#4; anti-41 BB/CD40 tetra-VH IgG
Q: Does B1 bind [1]?
A: Result: binds

Q: Does B1 bind [2]?
A: Result: binds

B2: tetra VH IgG #2 (VH-CH1=OX40 #2, VH-CL=CD40 #5) (bispecific antibody, V domains shown, not shown: a dimerising Fc or GST)
V domain 1: EVQLLESGGGLVQPGGSLRLSCAASGFTFSSYAMSWVRQAPGKGLEWVSGVSGGGGSTYYADSVRGRFTISRDNSKNTLYLQMNSLRAEDTAVYYCARGWDDINVWGQGTLVTVSS
V domain 2: EVQLLESGGGLVQPGGSLRLSCAASGFTFSSYTMDWVRQAPGKGLEWVSSISESGDTTDYADSVKGRFTISRDNSKNTLYLQMNSLRAEDTAVYYCARCSGGSCYSVNWGQGTLVTVSS
notes: Human IgG1 format with a VH in place of the VL; no VL domain; also called anti-CD40/OX40 tetra-VH IgG; OX40/CD40 bispecific antibody
Q: Which results are given for B2?
A: binding result [3]: binds; binding result [4]: binds

B3: tetra VH IgG #20 (VH-CH1=41BB #4, VH-CL=OX40 #2) (bispecific antibody, V domains shown, not shown: a dimerising Fc or GST)
V domain 1: EVQLLESGGGLVQPGGSLRLSCAASGFTFGDYAMSWFRQAPGKGLEWVAVLSYDGSNTDYADSVKGRFTISRDNSKNTLYLQMNSLRAEDTAVYYCAKGPLILAAGNYWGQGTLVTVSS
V domain 2: EVQLLESGGGLVQPGGSLRLSCAASGFTFSSYAMSWVRQAPGKGLEWVSGVSGGGGSTYYADSVRGRFTISRDNSKNTLYLQMNSLRAEDTAVYYCARGWDDINVWGQGTLVTVSS
notes: Human IgG1 format with a VH in place of the VL; no VL domain; also called anti 0X40/41 BB tetra-VH IgG
Q: Does B3 bind [5]?
A: Result: binds

Q: Does B3 bind [6]?
A: Result: binds

B4: tetra VH IgG #5 (VH-CH1=CD40 #5, VH-CL=OX40 #2) (bispecific antibody, V domains shown, not shown: a dimerising Fc or GST)
V domain 1: EVQLLESGGGLVQPGGSLRLSCAASGFTFSSYTMDWVRQAPGKGLEWVSSISESGDTTDYADSVKGRFTISRDNSKNTLYLQMNSLRAEDTAVYYCARCSGGSCYSVNWGQGTLVTVSS
V domain 2: EVQLLESGGGLVQPGGSLRLSCAASGFTFSSYAMSWVRQAPGKGLEWVSGVSGGGGSTYYADSVRGRFTISRDNSKNTLYLQMNSLRAEDTAVYYCARGWDDINVWGQGTLVTVSS
notes: Human IgG1 format with a VH in place of the VL; no VL domain; also called tetra VH lgG#5
Q: What does the source list for B4?
A: binding result [7]: binds; binding result [8]: binds
